Reference: publication PMC8958351, “Ubiquitylation of cyclin C by HACE1 regulates cisplatin‐associated sensitivity in gastric cancer” (Clinical and Translational Medicine, 2022)

Columns and labels:
Test in all cases: pull-down; GST pull-down; purified GST-HACE1 proteins incubated with purified cyclin C-MBP-His for 6 h at 4°C in 50 mM Tris-Cl, 200 mM NaCl, 1 mM EDTA, 1% NP-40, 1 mM DTT, 10 mM MgCl2, 10 μg/ml BSA, pH 8.0; GST pulled down, cyclin C immunoblotted
Settings in all cases: both partners purified
GST‐HACE1 = target: T1, GST‐HACE1 (human, UniProt Q8IYU2 1-909)
T1 construct: HACE1, human; the cDNA encoding HACE1 cloned into pGEX4T-1; also called recombinant glutathione (GST)‐tagged HACE1; GST‐fused HACE1
T1 sequence (looked up): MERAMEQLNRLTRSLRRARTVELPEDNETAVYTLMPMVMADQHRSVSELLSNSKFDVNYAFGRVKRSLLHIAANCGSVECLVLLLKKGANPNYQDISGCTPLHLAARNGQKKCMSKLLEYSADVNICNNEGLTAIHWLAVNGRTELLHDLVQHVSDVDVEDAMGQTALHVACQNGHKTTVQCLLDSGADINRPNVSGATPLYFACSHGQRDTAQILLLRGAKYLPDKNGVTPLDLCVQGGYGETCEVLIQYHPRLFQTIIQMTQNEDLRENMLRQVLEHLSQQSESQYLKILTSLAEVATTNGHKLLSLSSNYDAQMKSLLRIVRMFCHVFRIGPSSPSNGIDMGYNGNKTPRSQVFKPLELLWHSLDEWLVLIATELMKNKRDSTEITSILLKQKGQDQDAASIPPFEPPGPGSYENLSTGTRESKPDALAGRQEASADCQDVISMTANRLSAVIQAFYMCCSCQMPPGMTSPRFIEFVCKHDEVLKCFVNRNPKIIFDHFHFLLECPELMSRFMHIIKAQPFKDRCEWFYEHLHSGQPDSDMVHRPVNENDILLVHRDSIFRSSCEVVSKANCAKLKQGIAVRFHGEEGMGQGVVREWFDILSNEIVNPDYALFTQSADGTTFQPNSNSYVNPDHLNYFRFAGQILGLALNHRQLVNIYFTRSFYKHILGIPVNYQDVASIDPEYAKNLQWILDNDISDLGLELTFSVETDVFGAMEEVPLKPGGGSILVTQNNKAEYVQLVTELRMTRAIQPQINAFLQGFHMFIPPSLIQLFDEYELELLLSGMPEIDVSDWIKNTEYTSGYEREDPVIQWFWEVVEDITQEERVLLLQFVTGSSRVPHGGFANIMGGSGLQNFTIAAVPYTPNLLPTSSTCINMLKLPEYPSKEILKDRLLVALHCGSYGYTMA

[1] = target: T2, GST‐HACE1 truncation, amino acids 1–546 (human, UniProt Q8IYU2 1-546)
T2 sequence (looked up): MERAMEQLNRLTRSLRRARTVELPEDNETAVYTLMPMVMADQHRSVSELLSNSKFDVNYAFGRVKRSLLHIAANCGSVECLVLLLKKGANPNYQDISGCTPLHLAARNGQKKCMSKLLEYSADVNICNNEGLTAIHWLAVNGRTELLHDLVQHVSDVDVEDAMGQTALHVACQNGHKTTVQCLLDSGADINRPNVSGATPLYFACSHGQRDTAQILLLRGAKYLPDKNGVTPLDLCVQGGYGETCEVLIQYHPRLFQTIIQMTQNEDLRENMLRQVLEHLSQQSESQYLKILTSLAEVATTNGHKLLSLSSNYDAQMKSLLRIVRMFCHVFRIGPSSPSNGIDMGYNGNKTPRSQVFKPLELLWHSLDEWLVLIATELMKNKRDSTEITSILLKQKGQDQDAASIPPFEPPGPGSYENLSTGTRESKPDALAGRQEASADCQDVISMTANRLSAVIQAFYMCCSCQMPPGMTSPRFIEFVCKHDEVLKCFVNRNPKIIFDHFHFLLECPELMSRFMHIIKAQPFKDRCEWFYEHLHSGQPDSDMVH

[2] = target: T3, GST‐HACE1 truncation, amino acids 547–909 (human, UniProt Q8IYU2 547-909)
T3 sequence (looked up): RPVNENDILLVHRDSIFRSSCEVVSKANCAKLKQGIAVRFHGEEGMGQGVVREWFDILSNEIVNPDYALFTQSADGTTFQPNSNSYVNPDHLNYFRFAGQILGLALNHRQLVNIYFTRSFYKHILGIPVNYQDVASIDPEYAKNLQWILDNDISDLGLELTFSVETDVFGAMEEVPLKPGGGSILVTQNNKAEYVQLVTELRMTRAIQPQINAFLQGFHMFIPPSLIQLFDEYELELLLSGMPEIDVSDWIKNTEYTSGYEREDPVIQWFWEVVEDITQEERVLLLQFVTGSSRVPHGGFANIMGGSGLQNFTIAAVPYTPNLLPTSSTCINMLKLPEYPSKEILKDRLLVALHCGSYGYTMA

[3] = target: T4, GST‐HACE1 truncation, amino acids 258–909 (human, UniProt Q8IYU2 258-909)
T4 sequence (looked up): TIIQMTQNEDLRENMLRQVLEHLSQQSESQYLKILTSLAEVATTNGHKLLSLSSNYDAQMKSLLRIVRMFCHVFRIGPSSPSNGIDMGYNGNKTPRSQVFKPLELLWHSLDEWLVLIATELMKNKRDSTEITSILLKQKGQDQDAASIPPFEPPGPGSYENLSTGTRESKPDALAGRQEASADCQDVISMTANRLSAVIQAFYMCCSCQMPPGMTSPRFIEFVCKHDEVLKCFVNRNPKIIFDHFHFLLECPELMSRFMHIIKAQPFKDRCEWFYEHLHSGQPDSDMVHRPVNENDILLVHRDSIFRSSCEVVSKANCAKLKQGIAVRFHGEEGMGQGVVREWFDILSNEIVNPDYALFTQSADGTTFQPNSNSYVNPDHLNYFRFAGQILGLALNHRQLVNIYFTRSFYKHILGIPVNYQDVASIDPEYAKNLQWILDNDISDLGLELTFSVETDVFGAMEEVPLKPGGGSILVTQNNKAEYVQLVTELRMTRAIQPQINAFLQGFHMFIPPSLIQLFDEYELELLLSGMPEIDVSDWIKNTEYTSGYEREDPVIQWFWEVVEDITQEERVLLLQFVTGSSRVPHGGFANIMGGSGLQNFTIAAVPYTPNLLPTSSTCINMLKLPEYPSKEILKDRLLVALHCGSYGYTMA

Measured: binding result

B1: MBP‐His‐tagged cyclin C (natural protein, human)
chain: MAGNFWQSSHYLQWILDKQDLLKERQKDLKFLSEEEYWKLQIFFTNVIQALGEHLKLRQQVIATATVYFKRFYARYSLKSIDPVLMAPTCVFLASKVEEFGVVSNTRLIAAATSVLKTRFSYAFPKEFPYRMNHILECEFYLLELMDCCLIVYHPYRPLLQYVQDMGQEDMLLPLAWRIVNDTYRTDLCLLYPPFMIALACLHVACVVQQKDARQWFAELSVDMEKILEIIRVILKLYEQWKNFDERKEMATILSKMPKPKPPPNSEGEQGPNGSQNSSYSQS
notes: Cyclin C, human; the cDNA of CCNC cloned into pSJ8 (pET21a derivative, MBP-His fusion vector); also called cyclin C‐MBP‐His; source: Escherichia coli BL21, purified (Ni‐NTA agarose beads)
binds: GST‐HACE1 | [1] | [2] | [3]
